This note sets out measurements from the Human Domainome abundance scans (Beltran et al. 2025).

The chains are these.
B1: POU domain, class 2, transcription factor 1, residues 285 to 354; numbered along this chain, P14859 (parent)
chain: LEELEQFAKTFKQRRIKLGFTQGDVGLAMGKLYGNDFSQTTISRFEALNLSFKNMCKLKPLLEKWLNDAE

± gives the uncertainty stated by the source.

The variants in the series derive from B1. As to the kind of experiment: abundance fitness (aPCA) (normalised: wild type 0, dead -1); higher = more abundant; growth selection in yeast, the domain comes from the species named. The settings on record: Homo sapiens.
Regarding LEELEQFAKTFKARRIKLGFTQGDVGLAMGKLYGNDFSQTTISRFEALNLSFKNMCKLKPLLEKWLNDAE [Q13A], the abundance fitness was -0.02 ± 0.093. Take LEELEQFAKVFKQRRIKLGFTQGDVGLAMGKLYGNDFSQTTISRFEALNLSFKNMCKLKPLLEKWLNDAE [T10V]: the abundance fitness is -0.059 ± 0.02. Under LEELEQFAKSFKQRRIKLGFTQGDVGLAMGKLYGNDFSQTTISRFEALNLSFKNMCKLKPLLEKWLNDAE [T10S] stands -0.027 ± 0.025; under LEELEQFAKYFKQRRIKLGFTQGDVGLAMGKLYGNDFSQTTISRFEALNLSFKNMCKLKPLLEKWLNDAE [T10Y], -0.063 ± 0.06; under LEELEQFAKRFKQRRIKLGFTQGDVGLAMGKLYGNDFSQTTISRFEALNLSFKNMCKLKPLLEKWLNDAE [T10R], -0.038 ± 0.026. Under LEELEQFAKTEKQRRIKLGFTQGDVGLAMGKLYGNDFSQTTISRFEALNLSFKNMCKLKPLLEKWLNDAE [F11E] stands -1.12 ± 0.12. Take LEELEQFAKTGKQRRIKLGFTQGDVGLAMGKLYGNDFSQTTISRFEALNLSFKNMCKLKPLLEKWLNDAE [F11G]: the abundance fitness was -0.848 ± 0.034. As for LEELEQFAKTDKQRRIKLGFTQGDVGLAMGKLYGNDFSQTTISRFEALNLSFKNMCKLKPLLEKWLNDAE [F11D], the abundance fitness was -1.19 ± 0.48. Regarding LEELEQFAKTAKQRRIKLGFTQGDVGLAMGKLYGNDFSQTTISRFEALNLSFKNMCKLKPLLEKWLNDAE [F11A], the abundance fitness is -0.166 ± 0.029. For LEELEQFAKTWKQRRIKLGFTQGDVGLAMGKLYGNDFSQTTISRFEALNLSFKNMCKLKPLLEKWLNDAE [F11W], the abundance fitness was -0.105 ± 0.027. Take LEELEQFAKTSKQRRIKLGFTQGDVGLAMGKLYGNDFSQTTISRFEALNLSFKNMCKLKPLLEKWLNDAE [F11S]: the abundance fitness was -0.206 ± 0.035. For the variant LEELEQFAKTMKQRRIKLGFTQGDVGLAMGKLYGNDFSQTTISRFEALNLSFKNMCKLKPLLEKWLNDAE [F11M], the abundance fitness was -0.166 ± 0.037. As for LEELEQFAKTRKQRRIKLGFTQGDVGLAMGKLYGNDFSQTTISRFEALNLSFKNMCKLKPLLEKWLNDAE [F11R], the abundance fitness was -0.955 ± 0.042.

LEELEQFAKTNKQRRIKLGFTQGDVGLAMGKLYGNDFSQTTISRFEALNLSFKNMCKLKPLLEKWLNDAE [F11N]: the abundance fitness was -1.09 ± 0.093.

In the case of LEELEQFAKTQKQRRIKLGFTQGDVGLAMGKLYGNDFSQTTISRFEALNLSFKNMCKLKPLLEKWLNDAE [F11Q], the abundance fitness was -1.11 ± 0.16. Take LEELEQFAKTIKQRRIKLGFTQGDVGLAMGKLYGNDFSQTTISRFEALNLSFKNMCKLKPLLEKWLNDAE [F11I]: the abundance fitness is -0.402 ± 0.048.

With LEELEQFAKTLKQRRIKLGFTQGDVGLAMGKLYGNDFSQTTISRFEALNLSFKNMCKLKPLLEKWLNDAE [F11L], the abundance fitness was -0.147 ± 0.023. For LEELEQFAKTKKQRRIKLGFTQGDVGLAMGKLYGNDFSQTTISRFEALNLSFKNMCKLKPLLEKWLNDAE [F11K], the abundance fitness was -1.09 ± 0.15. Under LEELEQFAKTPKQRRIKLGFTQGDVGLAMGKLYGNDFSQTTISRFEALNLSFKNMCKLKPLLEKWLNDAE [F11P] stands -1.04 ± 0.1; under LEELEQFAKTVKQRRIKLGFTQGDVGLAMGKLYGNDFSQTTISRFEALNLSFKNMCKLKPLLEKWLNDAE [F11V], -0.239 ± 0.024. Under LEELEQFAKTYKQRRIKLGFTQGDVGLAMGKLYGNDFSQTTISRFEALNLSFKNMCKLKPLLEKWLNDAE [F11Y] stands -0.238 ± 0.12; under LEELEQFAKTCKQRRIKLGFTQGDVGLAMGKLYGNDFSQTTISRFEALNLSFKNMCKLKPLLEKWLNDAE [F11C], -0.11 ± 0.045; under LEELEQFAKTFMQRRIKLGFTQGDVGLAMGKLYGNDFSQTTISRFEALNLSFKNMCKLKPLLEKWLNDAE [K12M], -0.062 ± 0.032.

Regarding LEELEQFAKTFGQRRIKLGFTQGDVGLAMGKLYGNDFSQTTISRFEALNLSFKNMCKLKPLLEKWLNDAE [K12G], the abundance fitness is -0.146 ± 0.027.

For the variant LEELEQFAKTFYQRRIKLGFTQGDVGLAMGKLYGNDFSQTTISRFEALNLSFKNMCKLKPLLEKWLNDAE [K12Y], the abundance fitness is -0.157 ± 0.033. The value for LEELEQFAKTFEQRRIKLGFTQGDVGLAMGKLYGNDFSQTTISRFEALNLSFKNMCKLKPLLEKWLNDAE [K12E] was -0.046 ± 0.036; that for LEELEQFAKTFRQRRIKLGFTQGDVGLAMGKLYGNDFSQTTISRFEALNLSFKNMCKLKPLLEKWLNDAE [K12R] was 0.015 ± 0.033; that for LEELEQFAKTFCQRRIKLGFTQGDVGLAMGKLYGNDFSQTTISRFEALNLSFKNMCKLKPLLEKWLNDAE [K12C] was -0.041 ± 0.028. In the case of LEELEQFAKTFIQRRIKLGFTQGDVGLAMGKLYGNDFSQTTISRFEALNLSFKNMCKLKPLLEKWLNDAE [K12I], the abundance fitness was -0.007 ± 0.04. As for LEELEQFAKTFAQRRIKLGFTQGDVGLAMGKLYGNDFSQTTISRFEALNLSFKNMCKLKPLLEKWLNDAE [K12A], the abundance fitness is 0.006 ± 0.026. For the variant LEELEQFAKTFSQRRIKLGFTQGDVGLAMGKLYGNDFSQTTISRFEALNLSFKNMCKLKPLLEKWLNDAE [K12S], the abundance fitness was -0.044 ± 0.024. The value for LEELEQFAKTFHQRRIKLGFTQGDVGLAMGKLYGNDFSQTTISRFEALNLSFKNMCKLKPLLEKWLNDAE [K12H] was -0.084 ± 0.039; that for LEELEQFAKTFTQRRIKLGFTQGDVGLAMGKLYGNDFSQTTISRFEALNLSFKNMCKLKPLLEKWLNDAE [K12T] was -0.012 ± 0.03; that for LEELEQFAKTFLQRRIKLGFTQGDVGLAMGKLYGNDFSQTTISRFEALNLSFKNMCKLKPLLEKWLNDAE [K12L] was -0.156 ± 0.02. In the case of LEELEQFAKTFWQRRIKLGFTQGDVGLAMGKLYGNDFSQTTISRFEALNLSFKNMCKLKPLLEKWLNDAE [K12W], the abundance fitness was -0.364 ± 0.033.

On to LEELEQFAKTFNQRRIKLGFTQGDVGLAMGKLYGNDFSQTTISRFEALNLSFKNMCKLKPLLEKWLNDAE [K12N], for which the abundance fitness is -0.107 ± 0.038. LEELEQFAKTFFQRRIKLGFTQGDVGLAMGKLYGNDFSQTTISRFEALNLSFKNMCKLKPLLEKWLNDAE [K12F]: the abundance fitness is -0.307 ± 0.032. As for LEELEQFAKTFVQRRIKLGFTQGDVGLAMGKLYGNDFSQTTISRFEALNLSFKNMCKLKPLLEKWLNDAE [K12V], the abundance fitness is -0.05 ± 0.024. Consider LEELEQFAKTFPQRRIKLGFTQGDVGLAMGKLYGNDFSQTTISRFEALNLSFKNMCKLKPLLEKWLNDAE [K12P], for which the abundance fitness is -0.085 ± 0.049.
